Blank lines part the entries; values can stand above or below the molecule they belong to.
Key:
IL-11R-Fc [1] = biological target: T1, IL-11R-Fc; experiment: competition ELISA on IL-11R-Fc; reference murine W147A IL-11
T1 sequence (Q64385 whole entry, species assumed, looked up): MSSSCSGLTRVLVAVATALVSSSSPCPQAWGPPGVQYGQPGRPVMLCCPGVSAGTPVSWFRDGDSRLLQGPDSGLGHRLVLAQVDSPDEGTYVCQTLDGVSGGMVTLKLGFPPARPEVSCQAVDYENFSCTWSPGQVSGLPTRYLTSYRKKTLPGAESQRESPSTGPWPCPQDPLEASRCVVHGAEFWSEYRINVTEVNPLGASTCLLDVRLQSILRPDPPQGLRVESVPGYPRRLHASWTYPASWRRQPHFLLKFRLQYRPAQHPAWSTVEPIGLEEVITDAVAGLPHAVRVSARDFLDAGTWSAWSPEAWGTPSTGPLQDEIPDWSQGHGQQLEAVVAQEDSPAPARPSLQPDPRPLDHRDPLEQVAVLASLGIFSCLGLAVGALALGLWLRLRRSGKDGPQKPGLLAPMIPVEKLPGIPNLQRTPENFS

IL-11R-Fc [2] = biological target: T1, IL-11R-Fc; experiment: IL-11R binding ELISA; reference non-PEGylated mutein
[3] = biological target: T2, murine IL-11R on Ba/F3 cells stably transfected with murine IL-11R/gp130 (murine, UniProt Q64385 24-432); experiment: cell-based or functional assay
T2 sequence (looked up): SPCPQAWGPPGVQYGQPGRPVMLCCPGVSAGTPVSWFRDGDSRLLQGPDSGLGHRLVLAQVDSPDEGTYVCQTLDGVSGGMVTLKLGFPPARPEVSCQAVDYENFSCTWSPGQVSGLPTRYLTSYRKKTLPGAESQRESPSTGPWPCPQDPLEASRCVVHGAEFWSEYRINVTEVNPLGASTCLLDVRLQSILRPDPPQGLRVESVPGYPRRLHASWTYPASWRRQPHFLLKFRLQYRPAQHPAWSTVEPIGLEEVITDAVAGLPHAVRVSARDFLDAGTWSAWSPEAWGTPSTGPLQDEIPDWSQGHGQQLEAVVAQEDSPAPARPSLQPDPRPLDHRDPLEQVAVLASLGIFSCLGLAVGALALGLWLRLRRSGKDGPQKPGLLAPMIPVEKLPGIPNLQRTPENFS

fold higher binding affinity than murine W147A IL-11 (IL-11R-Fc [1]): 20 fold
Molecule: IL-11 mutein of SEQ ID NO: 1 (murine IL-11 with AMSAG at positions 58-62 replaced by PAIDY and W147A), N-terminal His-tagged (from UniProt P47873 22-199) (ligand)

fold reduction of IL-11R binding affinity relative to non-PEGylated mutein (IL-11R-Fc [2]): 5 fold
fold reduction against non-PEGylated mutein in antagonism of IL-11-induced Ba/F3 cell proliferation [3]: ~10 fold
B1: PEGylated IL-11 mutein (SEQ ID NO: 3 with a single 40 kDa PEG on the Cys at position 147) (ligand)
chain: VSSDPRADLDSAVLLTRSLLADTRQLAAQMRDKFPADGDHSLDSLPTLPAIDYTLGSLQLPGVLTRLRVDLMSYLRHVQWLRRAGGPSLKTLEPELGALQARLERLLRRLQLLMSRLALPQAAPDQPVIPLGPPASACGSIRAAHAILGGLHLTLDWAVRGLLLLKTRL
modifications: mPEG2-maleimide (single 40 kDa PEG moiety) on the Cys residue introduced at position 147 (mature murine IL-11 numbering)
